Laboratory results taken from article PMC10752582 (eLife, 2023).

B1: 6xHis-BRAF kinase domain, wild type (amino acids 442-723 with 16 solubilizing mutations) (domain or fragment, UniProt P15056 442-723, looked up)
chain: GRRDSSDDWEIPDGQITVGQRIGSGSFGTVYKGKWHGDVAVKMLNVTAPTPQQLQAFKNEVGVLRKTRHVNILLFMGYSTKPQLAIVTQWCEGSSLYHHLHASETKFEMKKLIDIARQTARGMDYLHAKSIIHRDLKSNNIFLHEDNTVKIGDFGLATVKSRWSGSHQFEQLSGSILWMAPEVIRMQDSNPYSFQSDVYAFGIVLYELMTGQLPYSNINNRDQIIEMVGRGSLSPDLSKVRSNCPKRMKRLMAECLKKKRDERPSFPRILAEIEELARELSG
modifications: biotin (Sulfo-NHS-biotin, 50 molar excess) in the pull-downs on streptavidin beads
notes: BRAF kinase domain, amino acids 442-723, with 16 solubilizing mutations; Designed as in Cope et al., 2020; Amine-coupled to a carboxyl sensor in OpenSPR, biotinylated in pull-downs; also called KD; BRAF-KD; source: E. coli BL21 codon +, purified (cobalt resin, SEC); not shown: 6xHis, N-terminal, kept
B2: BRAF-CRD only protein NT5 (residues 234-288) (domain or fragment, UniProt P15056 234-288, looked up)
chain: THNFVRKTFFTLAFCDFCRKLLFQGFRCQTCGYKFHQRCSTEVPLMCVNYDQLDL
notes: BRAF residues 234-288 (CRD only); also called BRAF NT5; source: E. coli BL21 codon +, purified

Columns and labels:
Assay in all cases: SPR; OpenSPR; BRAF-KD WT or D594G amine-coupled to a carboxyl sensor (~6000 RUs), BRAF NTs flowed at 30 µL/min; 20 mM HEPES pH 7.4, 150 mM NaCl, 5% glycerol, 0.005% Tween-20, 1% BSA; 1:1 fit
Settings in all cases: both partners purified
[1] = molecular target: T1, His/MBP-BRAF NT1 (aa 1-288) (UniProt P15056 1-288)
T1 construct: BRAF residues 1-288 (BSR, RBD and CRD); Cloned in the pET28-MBP vector; also called His/MBP-NT1; source: E. coli BL21 codon +, purified (Ni-NTA, SEC); not shown: 6xHis, N-terminal, kept; MBP, N-terminal, kept

[2] = molecular target: T2, untagged BRAF NT1 (His/MBP-tag removed by TEV protease) (UniProt P15056 1-288)
T2 construct: BRAF residues 1-288 (BSR, RBD and CRD); also called untagged NT1; source: E. coli BL21 codon +, purified, tag cleaved with TEV protease; not shown: 6xHis, N-terminal, cleaved; MBP, N-terminal, cleaved

[3] = molecular target: B1

With B1 the Kd [1] was 11 nM and the Kd [2] was 13 nM.

B2 showed a Kd [3] of over 6000 nM.
